molecular target: ALK-1/BMPR-2 receptor pair of the PathHunter U2Os dimerization cells (DiscoverX 93-0962C3) (UniProt P37023 22-503; Q13873 27-1038); test: cell-based or functional assay

% Emax BMP9	Emax (RLU)	Binder
56%	1.44e+06 RLU	DGL869 (bispecific antibody) chain 1: not shown chain 2: EVQLLESGGGLVQPGGSLRLSCAASGFTFSDYYMTWIRQAPGKGLEWVSSISGGSTYYADSRKGRFTISRDNSENTLYLQMNSLRAEDTAVYYCARDFGVAGWFGQYGMDVWGQGTLVTVSSGGGGSGGGGSGGGGSQSVLTQPPSASGTPGQRVTISCTGSSSNIGAGYDVHWYQQLPGTAPKLLIYRSNQRPSGVPDRFSGSKSGTSASLAISGLRSEDEADYYCSSYAGNYNLVFGGGTKLTVLDKTHTCPPCPAPEAAGAPSVFLFPPKPKDTLMISRTPEVTCVVVDVSHEDPEVKFNWYVDGVEVHNAKTKPREEQYNSTYRVVSVLTVLHQDWLNGKEYKCKVSNKALPAPIEKTISKAKGQPREPQVCTLPPSRDELTKNQVSLSCAVKGFYPSDIAVEWESNGQPENNYKTTPPVLDSDGSFFLVSKLTVDKSRWQQGNVFSCSVMHEALHNHYTQKSLSLSPGWSHPQFEK
57%	1.46e+06 RLU	DGL872 (bispecific antibody) chain 1: not shown chain 2: EVQLLESGGGLVQPGGSLRLSCAASGFTFSDYYMTWIRQAPGKGLEWVSSISGGSTYYADSRKGRFTISRDNSENTLYLQMNSLRAEDTAVYYCARDFGVAGWFGQYGMDVWGQGTLVTVSSGGGGSGGGGSGGGGSQSVLTQPPSASGTPGQRVTISCTGSSSNIGAGYDVHWYQQLPGTAPKLLIYRSNQRPSGVPDRFSGSKSGTSASLAISGLRSEDEADYYCSSYAGNYNLVFGGGTKLTVLDKTHTCPPCPAPEAAGAPSVFLFPPKPKDTLMISRTPEVTCVVVDVSHEDPEVKFNWYVDGVEVHNAKTKPREEQYNSTYRVVSVLTVLHQDWLNGKEYKCKVSNKALPAPIEKTISKAKGQPREPQVCTLPPSRDELTKNQVSLSCAVKGFYPSDIAVEWESNGQPENNYKTTPPVLDSDGSFFLVSKLTVDKSRWQQGNVFSCSVMHEALHNHYTQKSLSLSPGWSHPQFEK
61%	1.57e+06 RLU	DGL876 (bispecific antibody) chain 1: not shown chain 2: EVQLLESGGGLVQPGGSLRLSCAASGFTFSDYYMTWIRQAPGKGLEWVSSISGGSTYYADSRKGRFTISRDNSENTLYLQMNSLRAEDTAVYYCARDFGVAGWFGQYGMDVWGQGTLVTVSSGGGGSGGGGSGGGGSQSVLTQPPSASGTPGQRVTISCTGSSSNIGAGYDVHWYQQLPGTAPKLLIYRSNQRPSGVPDRFSGSKSGTSASLAISGLRSEDEADYYCSSYAGNYNLVFGGGTKLTVLDKTHTCPPCPAPEAAGAPSVFLFPPKPKDTLMISRTPEVTCVVVDVSHEDPEVKFNWYVDGVEVHNAKTKPREEQYNSTYRVVSVLTVLHQDWLNGKEYKCKVSNKALPAPIEKTISKAKGQPREPQVCTLPPSRDELTKNQVSLSCAVKGFYPSDIAVEWESNGQPENNYKTTPPVLDSDGSFFLVSKLTVDKSRWQQGNVFSCSVMHEALHNHYTQKSLSLSPGWSHPQFEK
65%	1.66e+06 RLU	DGL875 (bispecific antibody) chain 1: not shown chain 2: EVQLLESGGGLVQPGGSLRLSCAASGFTFSDYYMTWIRQAPGKGLEWVSSISGGSTYYADSRKGRFTISRDNSENTLYLQMNSLRAEDTAVYYCARDFGVAGWFGQYGMDVWGQGTLVTVSSGGGGSGGGGSGGGGSQSVLTQPPSASGTPGQRVTISCTGSSSNIGAGYDVHWYQQLPGTAPKLLIYRSNQRPSGVPDRFSGSKSGTSASLAISGLRSEDEADYYCSSYAGNYNLVFGGGTKLTVLDKTHTCPPCPAPEAAGAPSVFLFPPKPKDTLMISRTPEVTCVVVDVSHEDPEVKFNWYVDGVEVHNAKTKPREEQYNSTYRVVSVLTVLHQDWLNGKEYKCKVSNKALPAPIEKTISKAKGQPREPQVCTLPPSRDELTKNQVSLSCAVKGFYPSDIAVEWESNGQPENNYKTTPPVLDSDGSFFLVSKLTVDKSRWQQGNVFSCSVMHEALHNHYTQKSLSLSPGWSHPQFEK
60%	1.55e+06 RLU	DGL873 (bispecific antibody) chain 1: not shown chain 2: EVQLLESGGGLVQPGGSLRLSCAASGFTFSDYYMTWIRQAPGKGLEWVSSISGGSTYYADSRKGRFTISRDNSENTLYLQMNSLRAEDTAVYYCARDFGVAGWFGQYGMDVWGQGTLVTVSSGGGGSGGGGSGGGGSQSVLTQPPSASGTPGQRVTISCTGSSSNIGAGYDVHWYQQLPGTAPKLLIYRSNQRPSGVPDRFSGSKSGTSASLAISGLRSEDEADYYCSSYAGNYNLVFGGGTKLTVLDKTHTCPPCPAPEAAGAPSVFLFPPKPKDTLMISRTPEVTCVVVDVSHEDPEVKFNWYVDGVEVHNAKTKPREEQYNSTYRVVSVLTVLHQDWLNGKEYKCKVSNKALPAPIEKTISKAKGQPREPQVCTLPPSRDELTKNQVSLSCAVKGFYPSDIAVEWESNGQPENNYKTTPPVLDSDGSFFLVSKLTVDKSRWQQGNVFSCSVMHEALHNHYTQKSLSLSPGWSHPQFEK
61%	1.56e+06 RLU	DGL874 (bispecific antibody) chain 1: not shown chain 2: EVQLLESGGGLVQPGGSLRLSCAASGFTFSDYYMTWIRQAPGKGLEWVSSISGGSTYYADSRKGRFTISRDNSENTLYLQMNSLRAEDTAVYYCARDFGVAGWFGQYGMDVWGQGTLVTVSSGGGGSGGGGSGGGGSQSVLTQPPSASGTPGQRVTISCTGSSSNIGAGYDVHWYQQLPGTAPKLLIYRSNQRPSGVPDRFSGSKSGTSASLAISGLRSEDEADYYCSSYAGNYNLVFGGGTKLTVLDKTHTCPPCPAPEAAGAPSVFLFPPKPKDTLMISRTPEVTCVVVDVSHEDPEVKFNWYVDGVEVHNAKTKPREEQYNSTYRVVSVLTVLHQDWLNGKEYKCKVSNKALPAPIEKTISKAKGQPREPQVCTLPPSRDELTKNQVSLSCAVKGFYPSDIAVEWESNGQPENNYKTTPPVLDSDGSFFLVSKLTVDKSRWQQGNVFSCSVMHEALHNHYTQKSLSLSPGWSHPQFEK
56%	1.42e+06 RLU	DGL870 (bispecific antibody) chain 1: not shown chain 2: EVQLLESGGGLVQPGGSLRLSCAASGFTFSDYYMTWIRQAPGKGLEWVSSISGGSTYYADSRKGRFTISRDNSENTLYLQMNSLRAEDTAVYYCARDFGVAGWFGQYGMDVWGQGTLVTVSSGGGGSGGGGSGGGGSQSVLTQPPSASGTPGQRVTISCTGSSSNIGAGYDVHWYQQLPGTAPKLLIYRSNQRPSGVPDRFSGSKSGTSASLAISGLRSEDEADYYCSSYAGNYNLVFGGGTKLTVLDKTHTCPPCPAPEAAGAPSVFLFPPKPKDTLMISRTPEVTCVVVDVSHEDPEVKFNWYVDGVEVHNAKTKPREEQYNSTYRVVSVLTVLHQDWLNGKEYKCKVSNKALPAPIEKTISKAKGQPREPQVCTLPPSRDELTKNQVSLSCAVKGFYPSDIAVEWESNGQPENNYKTTPPVLDSDGSFFLVSKLTVDKSRWQQGNVFSCSVMHEALHNHYTQKSLSLSPGWSHPQFEK
62%	1.59e+06 RLU	DGL871 (bispecific antibody) chain 1: not shown chain 2: EVQLLESGGGLVQPGGSLRLSCAASGFTFSDYYMTWIRQAPGKGLEWVSSISGGSTYYADSRKGRFTISRDNSENTLYLQMNSLRAEDTAVYYCARDFGVAGWFGQYGMDVWGQGTLVTVSSGGGGSGGGGSGGGGSQSVLTQPPSASGTPGQRVTISCTGSSSNIGAGYDVHWYQQLPGTAPKLLIYRSNQRPSGVPDRFSGSKSGTSASLAISGLRSEDEADYYCSSYAGNYNLVFGGGTKLTVLDKTHTCPPCPAPEAAGAPSVFLFPPKPKDTLMISRTPEVTCVVVDVSHEDPEVKFNWYVDGVEVHNAKTKPREEQYNSTYRVVSVLTVLHQDWLNGKEYKCKVSNKALPAPIEKTISKAKGQPREPQVCTLPPSRDELTKNQVSLSCAVKGFYPSDIAVEWESNGQPENNYKTTPPVLDSDGSFFLVSKLTVDKSRWQQGNVFSCSVMHEALHNHYTQKSLSLSPGWSHPQFEK

From US20250002588A1 (DIAGONAL THERAPEUTICS, published 2025)
